# Assay results reported in patent US10393755B2, “Compositions and methods for treating eye infections and disease” (UNIVERSITY OF VIRGINIA PATENT FOUNDATION, priority 2014, dated 2019).
# B1: LSI: lacritin fused to diblock ELP (VPGSG)48(VPGIG)48; forms thermoresponsive nanoparticles (protein)
# chain: GEDASSDSTGADPAQEAGTSKPNEEISGPAEPASPPETTTTAQETSAAAVQGTAKVTSSRQELNPLKSIVEKSILLTEQALAKAGKGMHGGVPGGKQFIENGSEFAQKLLKKFSLLKPWAGLVPRGSGVPGSGVPGIGY
# modifications: ELP lacritin fusion construct; (129)..(133) the sequence VPGSG is directly repeated 48 times; (134)..(138) The sequence VPGIG is directly repeated 48 times
# notes: forms thermoresponsive nanoparticles
# Tests used:
# [1] = system: NOD mice corneal epithelium; test: Murine corneal abrasion and recovery study; assay type: in vivo, mouse
# Experimental: Briefly, 12 week female NOD mice were anesthetized with an i.p. injection of xylaxine/ketamine (60-70 mg+5 mg/kg) and placed on a heating pad. After cleaning the ocular surface with eye wash (OCuSOFT, Inc., TX), the corneal epithelium of the right eye was removed down to the basement membrane using an algerbrush II (The Alger Company, Inc., TX); the left eye was left intact as a contra lateral control. Mice were allowed to heal for 24 h with 2 doses ([…]) of KSFM medium containing BPE (50 mg/ml) and EGF (5 ng/ml), […] LSI, […] SI, or no treatment at 12 h intervals. After staining the ocular surface with […] 0.6 mg/ml fluorescein (Akorn, Ill.), images of the abrasion wound were captured using a Moticam 2300 camera after 12 h and 24 h.
# HCE-Ts = test: Exogenous cell uptake assay (rhodamine labeled); assay type: cell-based, human; conditions: NHS-rhodamine labeled
# Experimental: SI and LSI nanoparticles were conjugated with NHS-rhodamine (Thermo Fisher Scientific Inc, Rockford, Ill.) via covalent modification of the amino terminus. Conjugation was performed in 100 mM borate buffer (pH 8.0) for 2 h (LSI) or overnight (SI) at 4° C. followed by desalting on a PD10 column (GE Healthcare, Piscataway, N.J.) to remove free dye. Briefly, after the cells were rinsed with fresh medium without BPE and EGF, […] rhodamine labeled proteins were added into the dish. After incubation at 37° C. for different time points, the cells were rinsed and images were acquired using Zeiss LSM 510 Meta confocal microscope system.
# HCE-T monolayers = test: In vitro scratch closure assay; assay type: cell-based, human; conditions: 10 nM, 24 h, compared to plain medium without growth factors
# Experimental: For a scratch assay, confluent HCE-T monolayers were scraped in a straight line to create a scratch wound with a p200 pipet tip. Cells were rinsed with KSFM medium without BPE or EGF to remove debris and then incubated with fresh KSFM medium containing BPE (50 mg/ml) and EGF (5 ng/ml), LSI, or medium without growth factors (No treat). Phase contrast images of the wound at the beginning and after 24 h treatment were captured using Zeiss LSM 510 Meta confocal microscope system.
# [2] = Phase behavior and nanoparticle formation (optical density, DLS, TEM); assay type: physicochemical; design: Phase transition temperature / Tt1, critical micelle temperature (CMT): dose or concentration left out as unconfirmed
# Experimental: The phase diagram for LSI fusion protein was characterized by optical density change at 350 nm as a function of solution temperature using a DU800 UV-Vis Spectrophotometer (Beckman Coulter, Brea, Calif.). Tt was defined at the point of the maximum first derivative. Self-assembly of nanoparticles was measured using dynamic light scattering (DLS) using a DynaPro-LSR Plate Reader (Wyatt Technology, Santa Barbara, Calif.). Light scattering data were collected at regular temperature intervals (1° C.) as solutions were heated from 5 to 50° C. The results were analyzed using a Rayleigh sphere model and fitted into a cumulant algorithm based on the sum-of-squares value.
# The TEM imaging was carried out on a FEI Tecnai 12 TWIN microscope (Hillsboro, Oreg.) at 100 kV. Briefly, a 100 uM solution (5 uL) was initially deposited on a copper grid with carbon film (CF400-Cu, Election Microscopy Sciences, Hatfield, Pa.). After removing the excess amount of solution with filter paper, the samples were negatively stained with 2% uranyl acetate, followed by removing excess uranyl acetate after 30 s. b The samples were then dried under room temperature for at least 3 h before use in imaging.
# HCE-T cells = test: Ca2+ imaging (Fluo-4 AM); assay type: cell-based, human
# Experimental: SV40-immortalized HCE-T cells (Riken Cell Bank, Japan) were grown in keratinocyte-SFM media (KSFM, Life Technologies, Rockville, Md.) containing bovine pituitary extract (BPE, 50 mg/ml) and epidermal growth factor (EGF, 5 ng/ml). Cell passages 4-6 were used for Ca2+ imaging, scratch and uptake assays in 35 mm coverslip-bottomed dishes. To optimize responsiveness upon stimuli, cells were starved with EGF and BPE free medium for 24 h before experimentation.
# HCE-Ts were rinsed twice with Ca2+ and Mg2+ free phosphate buffer saline (PBS) and incubated at 37° C. for 20 min fresh KSFM medium containing […] calcium probe Fluo-4 AM (Invitrogen Life technologies, NY). […] The cells were illuminated at 488 nm, and their emission was monitored every 3.15 s at 510 nm using Zeiss LSM 510 Meta confocal microscope system. The field of interest contained 24 to 45 cells, and the fluorescent intensity change was calculated for each region with image-analysis software. Ca2+ dynamics were evaluated using the changes in fluorescence intensity of Fluo-4 AM. The data are presented as percentage change in fluorescence intensity at each time point (Ft) to the first time point (F0) reading: (Ft−F0)/F0×100%.
molecule,measurement,setting,value
B1,Percentage of initial wound area (PctArea),"[1]; 5 ml of 100 mM topical at 0 and 12 h, 12 and 24 hours, compared to SI, EGF+BPE, no treatment",significantly decreased
same,"Abrasion wound healing, LSI compared with LS96","[1]; 12 h, eight mice per group",significantly (p<0.05) faster
same,Corneal epithelium histology after 24 h,[1]; hematoxylin and eosin,complete recovery
same,Cytosolic fluorescence (cell uptake),HCE-Ts,significantly higher cytosolic fluorescence than SI nanoparticles
same,Time to significant cell entry,HCE-Ts,10 m
same,Scratch wound healing,HCE-T monolayers,significantly accelerated scratch wound healing
same,"Tt1, critical micelle temperature (CMT)",[2],32.3 °C
same,Hydrodynamic radius compared with LS96,"[2]; DLS, 37° C.",much larger hydrodynamic radius than LS96
same,Nanoparticle size by DLS above Tt,[2]; above Tt,130-140 nm
same,Nanoparticle size by DLS below Tt,[2]; below Tt,30-40 nm
same,Average diameter by TEM,[2]; dried from room temperature,67.1+/−11.5 nm
same,Phase transition temperature,[2]; optical density,18.4 °C
same,Maximum fluorescence intensity change compared to baseline (F0),HCE-T cells; Fluo-4 AM loaded HCE-T cells,4.399+/−1.043 fold
same,Ca2+ influx peak duration on second treatment,"HCE-T cells; same concentration, second time, from 40",70 s
